# Reference: patent publication US20240116985A1, “STAPLED PEPTIDES AND METHODS THEREOF” (priority 2020, published 2024)
# Starred links: 1 amine or outer side, 2 acyl side, 3 side chain; linkers in the order of their positions; H or OH if unused. Positions of bridges follow the written chain, without caps; N, C: chain ends. Non-standard residues stand in square brackets, D forms with d. Primed or numbered codes have the meaning given here. *: point of attachment. PyrS2″ = (S)-3-amino-1-((pent-4-en-1-yloxy)carbonyl)pyrrolidine-3-carboxylic acid (stapling residue), C=CCCCOC(=O)N1CC[C@@](N[*:1])(C(=O)[*:2])C1; B5(4) = 2,2-bis(4-pentenyl)glycine = 2-amino-2-(pent-4-en-1-yl)hept-6-enoic acid (stitching residue), C=CCCCC(CCCC=C)(N[*:1])C(=O)[*:2]; B5(5) = 2,2-bis(4-pentenyl)glycine, 2-amino-2-(pent-4-en-1-yl)hept-6-enoic acid (stitching residue), C=CCCCC(CCCC=C)(N[*:1])C(=O)[*:2]; PyrS2 = (S)-3-amino-1-((pent-4-en-1-yloxy)carbonyl)pyrrolidine-3-carboxylic acid, C=CCCCOC(=O)N1CC[C@@](N[*:1])(C(=O)[*:2])C1; PyrS1 = (S)-3-amino-1-((but-3-en-1-yloxy)carbonyl)pyrrolidine-3-carboxylic acid, C=CCCOC(=O)N1CC[C@@](N[*:1])(C(=O)[*:2])C1; B5(25) = 2-amino-2-(pent-4-en-1-yl)hept-6-enoic acid (stitching residue), C=CCCCC(CCCC=C)(N[*:1])C(=O)[*:2]; MorphAsn = (S)-2-amino-4-morpholino-4-oxobutanoic acid, O=C(C[C@H](N[*:1])C(=O)[*:2])N1CCOCC1; B5(3) = 2,2-bis(4-pentenyl)glycine (stitching residue), C=CCCCC(CCCC=C)(N[*:1])C(=O)[*:2]; B6 = 2-amino-2-(hex-5-en-1-yl)oct-7-enoic acid, C=CCCCCC(CCCCC=C)(N[*:1])C(=O)[*:2]; Phe(3-CF3) = N[C@@H](Cc1cccc(C(F)(F)F)c1)C(=O)O; Phe(3-COOH) = N[C@@H](Cc1cccc(C(=O)O)c1)C(=O)O; Phe(4-CONH2) = NC(=O)c1ccc(C[C@H](N)C(=O)O)cc1; 2F3MeF = Cc1cccc(C[C@H](N[*:1])C(=O)[*:2])c1F; Phe(2-CF3) = N[C@@H](Cc1ccccc1C(F)(F)F)C(=O)O; Phe(2-CONH2) = NC(=O)c1ccccc1C[C@H](N)C(=O)O; Phe(3-Cl) = N[C@@H](Cc1cccc(Cl)c1)C(=O)O; Phe(4-Cl) = N[C@@H](Cc1ccc(Cl)cc1)C(=O)O; Phe(2-Cl) = N[C@@H](Cc1ccccc1Cl)C(=O)O; Bta = N[C@@H](Cc1csc2ccccc12)C(=O)O; Lys(iPr) = CC(C)NCCCC[C@H](N)C(=O)O; αAllylPro = C=CC[C@@]1(C(=O)O)CCCN1; Morpholinoacetyl = O=C(CN1CCOCC1)*; tBuAla = CC(C)(C)C[C@H](N)C(=O)O; 3Thi = N[C@@H](Cc1ccsc1)C(=O)O; Cha = N[C@@H](CC1CCCCC1)C(=O)O; αMeP = C[C@@]1(C(=O)O)CCCN1; Me2Npr = not defined here; hSer = N[C@@H](CCO)C(=O)O; Aib = CC(C)(N)C(=O)O; Ms = CS(=O)(=O)*
# Target: full-length beta-Catenin (Uniprot ID P35222) (Homo sapiens (Human)) (UniProt P35222)
# Assay: fluorescence polarization competition; peptide titrated against 10 nM full-length beta-catenin + 10 nM 5FAM-TCF4(10-53)
row,Binder,IC50 [µM]
1,"Ac-[αAllylPro]N[Cha][B5(25)]DQK(Ms)AFL[PyrS2]F[Bta][MorphAsn]-NH2 (staple 1-4, 4-11) [I-2524]",0.609
2,"Ac-[αAllylPro]N[Cha][B5(4)]DQK(Morpholinoacetyl)AFL[PyrS2]F[Bta][MorphAsn]-NH2 (staple 1-4, 4-11) [I-2527]",0.263
3,"Ac-[αAllylPro]D[tBuAla][B5(3)]DEAAFL[PyrS2″]F[Bta]Q-NH2 (staple 1-4, 4-11; not fully specified; printed as Ac-PL3-Asp-Npg-B5-Asp-Glu-Ala-Ala-Phe-Leu-PyrS2-Phe-BztA-Gln-NH2) [I-1073]",0.409
4,"Ac-[αAllylPro]D[tBuAla][B5(3)]DEAAFL[PyrS2″][Phe(2-Cl)][Bta]T-NH2 (staple 1-4, 4-11; also: staple stereoisomer: later eluting HPLC peak) [I-1071]",1.26
5,"Ac-[αAllylPro]N[Cha][B5(5)]DQ[Lys(iPr)]AFN[PyrS2″]N[Bta][hSer]-NH2 (staple 1-4, 4-11) [I-2170]",10
6,Ac-[αMeP]D[tBuAla][Aib]DDAAFQ[Aib][3Thi][Bta]HK-NH2 (SMILES CC(=O)N1CCC[C@@]1(C)C(=O)N[C@@H](CC(=O)O)C(=O)N[C@@H](CC(C)(C)C)C(=O)NC(C)(C)C(=O)N[C@@H](CC(=O)O)C(=O)N[C@@H](CC(=O)O)C(=O)N[C@@H](C)C(=O)N[C@@H](C)C(=O)N[C@@H](Cc1ccccc1)C(=O)N[C@@H](CCC(N)=O)C(=O)NC(C)(C)C(=O)N[C@@H](Cc1ccsc1)C(=O)N[C@@H](Cc1csc2ccccc12)C(=O)N[C@@H](Cc1c[nH]cn1)C(=O)N[C@@H](CCCCN)C(N)=O) [I-2231],5.19
7,"Ac-[αAllylPro]N[Cha][B5(5)]DQ[Lys(iPr)]AFN[PyrS2″]Y[Bta][hSer]-NH2 (staple 1-4, 4-11) [I-2172]",10
8,"Ac-[αAllylPro]N[Cha][B5(4)]DQ[Lys(iPr)]AFN[PyrS2″][Phe(2-CONH2)][Bta][hSer]-NH2 (staple 1-4, 4-11) [I-2168]",0.212
9,"Ac-[αAllylPro]D[tBuAla][B6]D[Phe(3-COOH)]QAFL[PyrS2][Phe(2-CF3)][Bta]A-NH2 (staple 1-4, 4-11) [I-2515]",1.61
10,"Ac-[αAllylPro]N[Cha][B5(4)]DQKAFL[PyrS2]F[Bta][MorphAsn]-NH2 (staple 1-4, 4-11; not fully specified (residue 7); printed as Ac-PL3-Asn-Cha-B5-Asp-Gln-[Phc]Lys-Ala-Phe-Leu-PyrS2-Phe-BztA-MorphAsn-NH2) [I-2523]",1.73
11,"Ac-[αAllylPro]D[tBuAla][B6]D[Phe(3-COOH)]QAFL[PyrS2][Phe(2-CF3)][Bta]A-NH2 (staple 1-4, 4-11; also: one of three HPLC isomer compositions) [I-2516]",0.209
12,"Ac-[αAllylPro]N[Cha][B5(25)]DQK(CF3CO)AFL[PyrS2]F[Bta][MorphAsn]-NH2 (staple 1-4, 4-11) [I-2525]",4.29
13,Ac-[αMeP]D[tBuAla][Aib]DDAAFQ[Aib][3Thi][Bta]H-NH2 (SMILES CC(=O)N1CCC[C@@]1(C)C(=O)N[C@@H](CC(=O)O)C(=O)N[C@@H](CC(C)(C)C)C(=O)NC(C)(C)C(=O)N[C@@H](CC(=O)O)C(=O)N[C@@H](CC(=O)O)C(=O)N[C@@H](C)C(=O)N[C@@H](C)C(=O)N[C@@H](Cc1ccccc1)C(=O)N[C@@H](CCC(N)=O)C(=O)NC(C)(C)C(=O)N[C@@H](Cc1ccsc1)C(=O)N[C@@H](Cc1csc2ccccc12)C(=O)N[C@@H](Cc1c[nH]cn1)C(N)=O) [I-2228],2.14
14,"Ac-[αAllylPro]N[Cha][B5(5)]DQ[Lys(iPr)]AFN[PyrS2″][Phe(4-CONH2)][Bta][hSer]-NH2 (staple 1-4, 4-11) [I-2169]",10
15,"Ac-[αAllylPro]N[Cha][B5(4)]DQK(Ac)AFL[PyrS2]F[Bta][MorphAsn]-NH2 (staple 1-4, 4-11) [I-2522]",0.219
16,"Ac-[αAllylPro]N[Cha][B5(5)]DQ[Lys(iPr)]A[Phe(2-CONH2)]N[PyrS2″]F[Bta][hSer]-NH2 (staple 1-4, 4-11) [I-2173]",3.07
17,"Ac-[αAllylPro]N[Cha][B5(25)]DQK(Me2Npr)AFL[PyrS2]F[Bta][MorphAsn]-NH2 (staple 1-4, 4-11; reading uncertain; also: printed as Ac-PL3-Asn-Cha-B5-Asp-Gln-[Me2Npr]Lys-Ala-Phe-Leu-PyrS2-Phe-BztA-MorphAsn-NH2) [I-2528]",0.61
18,"Ac-[αAllylPro]N[Cha][B5(5)]DQ[Lys(iPr)]AFN[PyrS2″]Q[Bta][hSer]-NH2 (staple 1-4, 4-11) [I-2171]",10
19,"Ac-[αAllylPro]N[Cha][B5(5)]DQ[Lys(iPr)]A[Phe(4-CONH2)]N[PyrS2″]F[Bta][hSer]-NH2 (staple 1-4, 4-11) [I-2174]",10

# The next binders have a lower IC50 than those just listed; values first:
row,IC50 [µM],Binder
1,0.047,"Ac-[αAllylPro]D[tBuAla][B5(3)]D[Phe(3-COOH)]QAFL[PyrS2″][2F3MeF][Phe(3-Cl)]A-NH2 (staple 1-4, 4-11) [I-2227]"
2,0.199,"Ac-[αAllylPro]N[Cha][B5(4)]DQ[Lys(iPr)]AFN[PyrS2″]F[Bta][hSer]-NH2 (staple 1-4, 4-11) [I-2167]"
3,0.019,"Ac-[αAllylPro]D[tBuAla][B5(5)]DDAAFN[PyrS2″][3Thi]WQ-NH2 (staple 1-4, 4-11) [I-2175]"
4,0.198,"Ac-[αAllylPro]D[tBuAla][B5(5)]DTAA[Phe(3-CF3)]T[PyrS2″]F[Bta]S-NH2 (staple 1-4, 4-11) [I-1268: Ac-PL3-Asp-Npg-B5-Asp-Thr-Ala-Ala-3F3MeF-Thr-PyrS2-Phe-BztA-Ser-NH2]"
5,0.024,"Ac-[αAllylPro]D[tBuAla][B6]D[Phe(3-COOH)]QAFL[PyrS1][Phe(2-CF3)][Bta]A-NH2 (staple 1-4, 4-11) [I-2510]"
6,0.006,"Ac-[αAllylPro]D[tBuAla][B5(3)]DDAAFQ[PyrS2″][3Thi][Bta]HK-NH2 (staple 1-4, 4-11; also: earlier eluting staple isomer) [I-2229]"
7,0.097,"Ac-[αAllylPro]D[tBuAla][B5(3)]D[Phe(3-COOH)]AAFL[PyrS2″][2F3MeF][Phe(3-Cl)]S-NH2 (staple 1-4, 4-11) [I-2226]"
8,0.05,"Ac-[αAllylPro]D[tBuAla][B5(3)]D[Phe(3-COOH)]QAFL[PyrS2″][2F3MeF][Phe(4-Cl)]A-NH2 (staple 1-4, 4-11) [I-2223]"
9,0.084,"Ac-[αAllylPro]D[tBuAla][B5(3)]D[Phe(3-COOH)]AAFL[PyrS2″][2F3MeF][Phe(4-Cl)]S-NH2 (staple 1-4, 4-11) [I-2222]"
10,0.094,"Ac-[αAllylPro]D[tBuAla][B6]D[Phe(3-COOH)]QAFL[PyrS1][Phe(2-CF3)][Bta]A-NH2 (staple 1-4, 4-11; not fully specified; printed as Ac-PL3-Asp-Npg-B6-Asp-3COOHF-Gln-Ala-Phe-Leu-PyrS1-2F3MeF-BztA-Ala-NH2) [I-2519]"
11,0.014,"Ac-[αAllylPro]D[tBuAla][B5(3)]D[Phe(3-COOH)]AAFL[PyrS2″][3Thi][Phe(3-Cl)]Q-NH2 (staple 1-4, 4-11) [I-2224]"
12,0.061,"Ac-[αAllylPro]D[tBuAla][B6]D[Phe(3-COOH)]QAFL[PyrS2][Phe(2-CF3)][Bta]A-NH2 (staple 1-4, 4-11) [I-2517]"
13,0.027,"Ac-[αAllylPro]D[tBuAla][B5(4)]DXQAFL[PyrS2][Phe(2-CF3)][Bta]A-NH2 (staple 1-4, 4-11; not fully specified (residue 6); printed as Ac-PL3-Asp-Npg-B5-Asp-[CH2CChCO2H]TriAzDap-Gln-Ala-Phe-Leu-PyrS2-2F3MeF-BztA-Ala-NH2) [I-2520]"
14,0.008,"Ac-[αAllylPro]D[tBuAla][B5(3)]DDAAFQ[PyrS2″][3Thi][Bta]HK-NH2 (staple 1-4, 4-11; also: later eluting staple isomer) [I-2230]"

# Target: full-length beta-Catenin (Uniprot ID P35222) (Homo sapiens (Human)) (UniProt P35222)
# Assay: fluorescence polarization competition; full-length beta-catenin, competitor 5FAM-TCF4(10-53) probe
# Target sequence in this assay (P35222 whole entry): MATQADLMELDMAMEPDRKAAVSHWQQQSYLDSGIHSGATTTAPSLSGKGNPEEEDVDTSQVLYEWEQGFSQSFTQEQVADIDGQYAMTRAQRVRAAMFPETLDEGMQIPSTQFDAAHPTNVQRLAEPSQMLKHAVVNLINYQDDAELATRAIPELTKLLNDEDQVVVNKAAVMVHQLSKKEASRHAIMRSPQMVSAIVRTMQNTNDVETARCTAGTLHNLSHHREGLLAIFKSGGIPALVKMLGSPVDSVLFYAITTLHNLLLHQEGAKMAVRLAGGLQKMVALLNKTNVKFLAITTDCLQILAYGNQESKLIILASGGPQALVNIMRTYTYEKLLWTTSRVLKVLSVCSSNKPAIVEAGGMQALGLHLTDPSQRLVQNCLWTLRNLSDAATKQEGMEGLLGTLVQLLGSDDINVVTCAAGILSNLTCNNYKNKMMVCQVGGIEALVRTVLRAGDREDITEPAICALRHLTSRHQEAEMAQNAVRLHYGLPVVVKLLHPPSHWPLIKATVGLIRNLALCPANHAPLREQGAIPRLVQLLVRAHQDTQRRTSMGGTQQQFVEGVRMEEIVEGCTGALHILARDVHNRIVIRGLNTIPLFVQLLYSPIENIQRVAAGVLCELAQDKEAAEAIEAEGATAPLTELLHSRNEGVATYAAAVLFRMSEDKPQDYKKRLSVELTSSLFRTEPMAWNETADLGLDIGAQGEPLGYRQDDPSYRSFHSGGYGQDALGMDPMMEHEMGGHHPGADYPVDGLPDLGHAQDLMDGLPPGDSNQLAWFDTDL
row,EC50 [µM],Binder
1,0.409,"Ac-[αAllylPro]D[tBuAla][B5(3)]DEAAFL[PyrS2″]F[Bta]Q-NH2 (staple 1-4, 4-11; not fully specified; printed as Ac-PL3-Asp-Npg-B5-Asp-Glu-Ala-Ala-Phe-Leu-PyrS2-Phe-BztA-Gln-NH2) [I-1073]"
2,1.26,"Ac-[αAllylPro]D[tBuAla][B5(3)]DEAAFL[PyrS2″][Phe(2-Cl)][Bta]T-NH2 (staple 1-4, 4-11; also: staple stereoisomer: later eluting HPLC peak) [I-1071]"
